Results published in patent US20220306705A1.

Assays:
Assay in all cases: cell-based or functional assay
[1] = molecular target: T1, Factor G β-subunit βC1 (Limulus polyphemus)
T1 sequence: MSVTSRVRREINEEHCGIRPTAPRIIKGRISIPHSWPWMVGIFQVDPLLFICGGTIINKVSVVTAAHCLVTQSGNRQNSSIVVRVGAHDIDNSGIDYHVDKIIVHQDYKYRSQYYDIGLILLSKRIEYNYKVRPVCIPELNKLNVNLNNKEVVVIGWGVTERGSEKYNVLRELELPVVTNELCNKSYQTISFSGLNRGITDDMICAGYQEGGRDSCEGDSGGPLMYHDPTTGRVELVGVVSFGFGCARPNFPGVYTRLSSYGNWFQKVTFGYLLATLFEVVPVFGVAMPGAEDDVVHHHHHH

[2] = molecular target: T2, Factor G β-subunit βC2 (Limulus polyphemus)
T2 sequence: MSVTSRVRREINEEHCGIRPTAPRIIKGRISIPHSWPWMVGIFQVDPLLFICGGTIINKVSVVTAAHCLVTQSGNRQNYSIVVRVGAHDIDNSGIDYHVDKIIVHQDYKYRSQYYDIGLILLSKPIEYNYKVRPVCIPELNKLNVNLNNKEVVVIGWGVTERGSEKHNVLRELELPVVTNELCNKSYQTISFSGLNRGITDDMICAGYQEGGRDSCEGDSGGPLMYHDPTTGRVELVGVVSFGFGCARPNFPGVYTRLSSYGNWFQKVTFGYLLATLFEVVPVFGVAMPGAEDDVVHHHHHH

[3] = molecular target: T3, Factor G β-subunit βi3 (Limulus polyphemus)
T3 sequence: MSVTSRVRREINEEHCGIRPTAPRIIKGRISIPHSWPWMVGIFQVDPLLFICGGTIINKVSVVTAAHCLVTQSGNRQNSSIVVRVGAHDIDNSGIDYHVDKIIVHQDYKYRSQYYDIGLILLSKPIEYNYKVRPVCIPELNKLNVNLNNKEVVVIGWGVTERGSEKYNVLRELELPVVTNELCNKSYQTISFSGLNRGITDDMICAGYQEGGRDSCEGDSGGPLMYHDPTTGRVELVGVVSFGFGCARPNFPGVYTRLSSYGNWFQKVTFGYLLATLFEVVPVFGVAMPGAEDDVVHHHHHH

[4] = molecular target: T4, Factor G β-subunit β5 (Limulus polyphemus)
T4 sequence: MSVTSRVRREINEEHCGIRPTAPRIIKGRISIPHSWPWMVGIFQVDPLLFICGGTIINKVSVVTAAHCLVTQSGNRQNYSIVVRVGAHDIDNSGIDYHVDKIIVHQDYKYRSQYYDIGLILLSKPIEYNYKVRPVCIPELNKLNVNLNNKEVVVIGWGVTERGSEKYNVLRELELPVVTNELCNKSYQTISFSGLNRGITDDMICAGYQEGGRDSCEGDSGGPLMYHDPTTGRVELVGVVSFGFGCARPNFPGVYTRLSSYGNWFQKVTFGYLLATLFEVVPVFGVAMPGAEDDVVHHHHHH

[5] = molecular target: T5, Factor G β-subunit βi2 (Limulus polyphemus)
T5 sequence: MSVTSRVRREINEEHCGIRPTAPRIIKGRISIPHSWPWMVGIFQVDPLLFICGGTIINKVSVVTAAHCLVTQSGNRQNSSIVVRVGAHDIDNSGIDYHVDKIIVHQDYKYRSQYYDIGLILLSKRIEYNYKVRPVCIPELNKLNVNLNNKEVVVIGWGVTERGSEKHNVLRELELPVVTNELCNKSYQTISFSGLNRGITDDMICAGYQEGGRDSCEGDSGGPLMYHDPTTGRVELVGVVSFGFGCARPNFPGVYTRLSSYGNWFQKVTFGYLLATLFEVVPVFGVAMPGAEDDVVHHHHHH

[6] = molecular target: T6, Factor G β-subunit β2 (Limulus polyphemus)
T6 sequence: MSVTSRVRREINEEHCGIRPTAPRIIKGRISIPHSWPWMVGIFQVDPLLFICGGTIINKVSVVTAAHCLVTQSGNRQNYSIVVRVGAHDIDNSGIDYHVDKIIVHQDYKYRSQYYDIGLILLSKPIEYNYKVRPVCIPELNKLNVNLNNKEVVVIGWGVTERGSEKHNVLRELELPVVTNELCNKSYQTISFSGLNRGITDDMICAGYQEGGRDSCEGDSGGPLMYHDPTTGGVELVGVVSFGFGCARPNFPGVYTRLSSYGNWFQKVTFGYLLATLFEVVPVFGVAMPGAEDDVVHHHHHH

[7] = molecular target: T7, Tachypleus Factor G β-subunit (Tachypleus (paragraph 383 prints 'Tachypleus polyphemus'; paragraph 8 prints Tachypleus tridentatus)) (UniProt Q27083)
T7 sequence (looked up): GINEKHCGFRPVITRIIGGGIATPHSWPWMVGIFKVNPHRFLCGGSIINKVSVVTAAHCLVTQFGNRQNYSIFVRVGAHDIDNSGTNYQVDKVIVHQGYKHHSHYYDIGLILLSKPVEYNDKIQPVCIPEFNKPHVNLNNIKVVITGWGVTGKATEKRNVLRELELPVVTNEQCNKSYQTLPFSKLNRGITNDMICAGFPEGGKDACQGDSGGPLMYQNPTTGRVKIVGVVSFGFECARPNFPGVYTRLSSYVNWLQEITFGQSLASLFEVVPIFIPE

B1: Factor G α-subunit A (protein)
chain: EPKWKLVWSDEFTNGISSDWEFETGNGPNGWGNNELQYYRRENTRVEGGKLIITAKEEDYEGFRYTSAKLKTQFNKPWKDGKIEARMSIPSFRGVWVAFWMLGDITDTDSWPSSGEIDFEEHINTNNEVRGTIHWSTSDDADTLHGRGTNTDYHIYSVEWNSSVIRWFVDGNQYFEVNIQRGATGTNAFHNNVFVILNMAIGGNWPGFNVADEAFPANMYVDYVRVYQDANTPSPVDVTHLSGYYFLQNRHSELYLDVSGSSNEDGAFLQQWPYSGNANQQFDFVHLGNKVYKIINKNSGKSLDVYELGTDNGVRIQQWSYGGGYNQQFIVQDVGDGYYKIFARSTGKLVEVADLNKDPGGKIQQWSDDGQLSGQWKLIRNKANSKLIQAESYFASSKVQLEDTSDVGGGKNVKCDNEGAWMAYKDINFPSSGTYQVEYRVASERAGGMLSLDLNAGSIVLGMLNVPSTGGLQKWTTISHTVNVSSGTYNLGISVQRPGWNINWINITKVSSQLKSIPSTNSRVIQAESYFDSSKVQLEDTSDVGGGKNVKCDTKGAWMAYKDINFPSSGSYQIEYRVASERAGGKLSLDLNAGSIVLGMLDVPSTGGWQKWTTISHTVKVDSGTYNLGIYVQQPGWNINWIKITKV
A glucan-dependent protease activity of the coexpressed product: blank difference in absorbance (405 nm / 492 nm) with vs without LNT; grade A >0.1, B <=0.1 and >0.01, C <=0.01 and >0, D =0 (absorbance difference) [1] of less than 0.1, a glucan-dependent protease activity of the coexpressed product: blank difference in absorbance (405 nm / 492 nm) with vs without LNT; grade A >0.1, B <=0.1 and >0.01, C <=0.01 and >0, D =0 (absorbance difference) [2] of less than 0.01 and a glucan-dependent protease activity of the coexpressed product: blank difference in absorbance (405 nm / 492 nm) with vs without LNT; grade A >0.1, B <=0.1 and >0.01, C <=0.01 and >0, D =0 (absorbance difference) [3] of 0.1 were found for B1 in this work. It also gave a glucan-dependent protease activity of the coexpressed product: blank difference in absorbance (405 nm / 492 nm) with vs without LNT; grade A >0.1, B <=0.1 and >0.01, C <=0.01 and >0, D =0 (absorbance difference) [4] of less than 0.1, a glucan-dependent protease activity of the coexpressed product: blank difference in absorbance (405 nm / 492 nm) with vs without LNT; grade A >0.1, B <=0.1 and >0.01, C <=0.01 and >0, D =0 (absorbance difference) [5] of 0.1 and a glucan-dependent protease activity of the coexpressed product: blank difference in absorbance (405 nm / 492 nm) with vs without LNT; grade A >0.1, B <=0.1 and >0.01, C <=0.01 and >0, D =0 (absorbance difference) [6] of less than 0.01.

B2: Tachypleus Factor G α-subunit (protein)
chain: SHEPKWQLVWSDEFTNGISSDWEFEMGNGLNGWGNNELQYYRRENAQVEGGKLVITAKREDYDGFKYTSARLKTQFDKSWKYGKIEAKMAIPSFRGVWVMFWMSGDNTNYVRWPSSGEIDFIEHRNTNNEKVRGTIHWSTPDGAHAHHNRESNTNGIDYHIYSVEWNSSIVKWFVNGNQYFEVKIQGGVNGKSAFRNKVFVILNMAIGGNWPGFDVADEAFPAKMYIDYVRVYQDASTSSPVGDTSLDGYYFVQNRHSELYLDVTDASNEDGAFLQQWSYSGNENQQFDFEHLENNVYKITNKKSGKSLDVYNFGTENGVRIQQWSYGGARNQQFTVQSVGDGYYKIIPRGSGKLVEVADFSKDAGGKIQQWSDNNQLSGQWKLIKSKSYSKLIQAESYFDSSKVQLEDTSDVGGGKNVKCDNEGAWMAYKDIDFPSSGNYRIEYRVASERAGGKLSLDLNAGSIVLGMLDVPSTGGWQKWTTISHTVNVDSGTYNLGIYVQRASWNINWIKITKIPEQSNLNQGRRNSKLIQAESYFSYSEVQLEDTLDVGGGKNVKCDKEGAWMAYKDIDFPSSGSYRVEYRVASERAGGKLSLDLNAGSIVLGMLDIPSTGGLQKWTTISHIVNVDLGTYNLGIYVQKASWNINWIRITKV
A glucan-dependent protease activity of the coexpressed product: blank difference in absorbance (405 nm / 492 nm) with vs without LNT; grade D = blank difference equal to 0 (legend given for Table 13) (absorbance difference) [7] of 0 was found for B2 in this work.

B3: Factor G α-subunit (AB547712) derived from Limulus polyphemus (protein)
chain: SQEPKWKLVWSDEFTNGISSDWEFETGNGPNGWGNNELQYYRRENTRVEGGKLIITAKEEDYEGFRYTSAKLKTQFNKPWKDGKIEARMSIPSFRGVWVAFWMLGDITDTDSWPSSGEIDFEEHINTNNEVRGTIHWSTSDDADTLHGRGTNTDYHIYSVEWNSSVIRWFVDGNQYFDVNIQRGATGTNAFHNNVFVILNMAIGGNWPGFNVADEAFPANMYVDYVRVYQDANTPSPVDVTHLSGYYFLQNRHSELYLDVSGSSNEDGAFLQQWPYSGNANQQFDFVHLGNKVYKIINKNSGKSLDVYELGTDNGVRIQQWSYGGGYNQQFIVQDVGDGYYKIFARSTGKLVEVADLNKDPGGKIQQWSDDGQLSGQWKLIRNKANSKLIQAESYFASSKVQLEDTSDVGGGKNVKCDNEGAWMAYKDINFPSSGTYQVEYRVASERAGGMLSLDLNAGSIVLGMLNVPSTGGLQKWTTISHTVNVSSGTYNLGISVQRPGWNINWINITKVSSQLKSIPSTNSRVIQAESYFDSSKVQLEDTSDVGGGKNVKCDTKGAWMAYKDINFPSSGSYQIEYRVASERAGGKLSLDLNAGSIVLGMLDVPSTGGWQKWTTISHTVKVDSGTYNLGIYVQQPGWNINWIKITKV
A glucan-dependent protease activity of the coexpressed product: blank difference in absorbance (405 nm / 492 nm) with vs without LNT; grade A >0.1, B <=0.1 and >0.01, C <=0.01 and >0, D =0 (absorbance difference) [1] of 0, a glucan-dependent protease activity of the coexpressed product: blank difference in absorbance (405 nm / 492 nm) with vs without LNT; grade A >0.1, B <=0.1 and >0.01, C <=0.01 and >0, D =0 (absorbance difference) [2] of 0 and a glucan-dependent protease activity of the coexpressed product: blank difference in absorbance (405 nm / 492 nm) with vs without LNT; grade A >0.1, B <=0.1 and >0.01, C <=0.01 and >0, D =0 (absorbance difference) [3] of 0 were found for B3 in this work. It also gave a glucan-dependent protease activity of the coexpressed product: blank difference in absorbance (405 nm / 492 nm) with vs without LNT; grade A >0.1, B <=0.1 and >0.01, C <=0.01 and >0, D =0 (absorbance difference) [4] of 0, a glucan-dependent protease activity of the coexpressed product: blank difference in absorbance (405 nm / 492 nm) with vs without LNT; grade A >0.1, B <=0.1 and >0.01, C <=0.01 and >0, D =0 (absorbance difference) [5] of 0 and a glucan-dependent protease activity of the coexpressed product: blank difference in absorbance (405 nm / 492 nm) with vs without LNT; grade A >0.1, B <=0.1 and >0.01, C <=0.01 and >0, D =0 (absorbance difference) [6] of 0.

B4: Factor G α-subunit B (protein)
chain: TNWKLVWSDEFTNGISSDWEFETGNGPNGWGNNELQYYRRENARVEGGKLIITAKKEDYEGFRYTSAKLKTQFNKPWKDGKIEARMSIPSFRGVWVAFWMLGDITDTDSWPSSGEIDFKEHINTNNEVRGTIHWSTSDGAHTHHGRGTNTDYHIYSVEWNSSVIRWFVDGNQYFEVNIQRGATGTNAFHNKVFVILNMAIGGNWPGFNVADEAFPANMYVDYVRVYQDANTPSPVDVDVTDLSGYYFLQNRHSELYLDVSFSSNKDGAFLQQWPYNGNANQQFDFVHLGNNIYKITNKNSGKSLDVYNVGTENGVRIQQMPYRGSYNQQFIVQDVGDGYYKIFARNSRKLVEVADFNKDPGGKIQQWSDDGQISGQWKLIRNKVNSKVIQAESYFASLGVQLEDTSDVGGGKNVKCDTEGAWMAYKDINFPSSGSYQVEYRVASERAGGKLSLDLNAGSIVLGMLNVPSTGGWQKWTTISHTVKVDSGTYNLGIYVQRPRWNINWIKITEAPGQSKPIQRSDTDSKVIQAESYFASSKVQLEDTSDVGGGKNVKCDNEGAWMAYKDINFPSSGSYQIEYRVASERAGGKLSLDLNAGSIVLGMLDVPSTGGWQKWTTISHTVNVSSGTYNLGIYVQRAAWNINWIKITKV
A glucan-dependent protease activity of the coexpressed product: blank difference in absorbance (405 nm / 492 nm) with vs without LNT; grade A >0.1, B <=0.1 and >0.01, C <=0.01 and >0, D =0 (absorbance difference) [1] of 0, a glucan-dependent protease activity of the coexpressed product: blank difference in absorbance (405 nm / 492 nm) with vs without LNT; grade A >0.1, B <=0.1 and >0.01, C <=0.01 and >0, D =0 (absorbance difference) [2] of less than 0.1 and a glucan-dependent protease activity of the coexpressed product: blank difference in absorbance (405 nm / 492 nm) with vs without LNT; grade A >0.1, B <=0.1 and >0.01, C <=0.01 and >0, D =0 (absorbance difference) [3] of less than 0.01 were found for B4 in this work. It also gave a glucan-dependent protease activity of the coexpressed product: blank difference in absorbance (405 nm / 492 nm) with vs without LNT; grade A >0.1, B <=0.1 and >0.01, C <=0.01 and >0, D =0 (absorbance difference) [4] of 0, a glucan-dependent protease activity of the coexpressed product: blank difference in absorbance (405 nm / 492 nm) with vs without LNT; grade A >0.1, B <=0.1 and >0.01, C <=0.01 and >0, D =0 (absorbance difference) [5] of 0 and a glucan-dependent protease activity of the coexpressed product: blank difference in absorbance (405 nm / 492 nm) with vs without LNT; grade A >0.1, B <=0.1 and >0.01, C <=0.01 and >0, D =0 (absorbance difference) [6] of 0.1.
